Measured values as given in patent publication US20110110857.

Experiments:
[1] = biological target: bovine serum albumin, P02769
[2] = biological target: C. muridarum Major Outer Membrane Protein (MOMP)

Chain of bovine serum albumin, P02769 (P02769 25-607): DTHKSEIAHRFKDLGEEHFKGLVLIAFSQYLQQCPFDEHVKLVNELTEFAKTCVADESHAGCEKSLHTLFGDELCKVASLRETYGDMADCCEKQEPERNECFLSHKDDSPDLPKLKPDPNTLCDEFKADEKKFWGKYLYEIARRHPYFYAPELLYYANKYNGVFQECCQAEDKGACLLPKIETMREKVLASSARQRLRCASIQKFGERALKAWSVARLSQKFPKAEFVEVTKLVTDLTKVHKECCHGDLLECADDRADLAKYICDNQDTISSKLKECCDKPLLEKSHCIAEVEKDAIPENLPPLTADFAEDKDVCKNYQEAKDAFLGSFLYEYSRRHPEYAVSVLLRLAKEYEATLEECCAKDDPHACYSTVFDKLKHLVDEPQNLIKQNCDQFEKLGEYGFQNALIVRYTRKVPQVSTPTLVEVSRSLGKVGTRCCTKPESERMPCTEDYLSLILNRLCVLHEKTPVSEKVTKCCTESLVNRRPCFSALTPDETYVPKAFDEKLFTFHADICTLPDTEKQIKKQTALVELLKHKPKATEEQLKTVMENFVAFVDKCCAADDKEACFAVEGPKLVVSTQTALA

Protein	protease digestion of BSA, overnight at 37 C, SDS-PAGE/Coomassie, with DTT [1]	protease digestion of MOMP, SDS-PAGE/Coomassie, with DTT [2]	protease digestion of MOMP, SDS-PAGE/Coomassie, without DTT [2]	protease digestion of BSA, SDS-PAGE/Coomassie, with DTT [1]	protease digestion of MOMP, SDS-PAGE/Coomassie, with and without DTT [2]
wild-type C. trachomatis HtrA (CT823) (protein) SPMLGYSASKKDSKADICLAVSSGDQEVSQEDLLKEVSRGFSRVAAKATPGVVYIENFPKTGNQAIASPGNKRGFQENPFDYFNDEFFNRFFGLPSHREQQRPQQRDAVRGTGFIVSEDGYVVTNHHVVEDAGKIHVTLHDGQKYTAKIVGLDPKTDLAVIKIQAEKLPFLTFGNSDQLQIGDWAIAIGNPFGLQATVTVGVISAKGRNQLHIVDFEDFIQTDAAINPGNSGGPLLNINGQVIGVNTAIVSGSGGYIGIGFAIPSLMAKRVIDQLISDGQVTRGFLGVTLQPIDSELATCYKLEKVYGALVTDVVKGSPAEKAGLRQEDVIVAYNGKEVESLSALRNAISLMMPGTRVVLKIVREGKTIEIPVTVTQIPTEDGVSALQKMGVRVQNITPEICKKLGLAADTRGILVVAVEAGSPAASAGVAPGQLILAVNRQRVASVEELNQVLKNSKGENVLLMVSQGDVVRFIVLKSDE	strong protease activity in the presence of the reducing agent DTT (dithiothreitol) as shown by degradation of the intact BSA protein	–	–	–	–
wild type C. muridarum HtrA (TC0210) (protein) SPMLGYSAPKKDSSTGICLAASQSDRELSQEDLLKEVSRGFSKVAAQATPGVVYIENFPKTGSQAIASPGNKRGFQENPFDYFNDEFFNRFFGLPSHREQPRPQQRDAVRGTGFIVSEDGYVVTNHHVVEDAGKIHVTLHDGQKYTAKIIGLDPKTDLAVIKIQAKNLPFLTFGNSDQLQIGDWSIAIGNPFGLQATVTVGVISAKGRNQLHIVDFEDFIQTDAAINPGNSGGPLLNIDGQVIGVNTAIVSGSGGYIGIGFAIPSLMAKRVIDQLISDGQVTRGFLGVTLQPIDSELAACYKLEKVYGALITDVVKGSPAEKAGLRQEDVIVAYNGKEVESLSALRNAISLMMPGTRVVLKVVREGKFIEIPVTVTQIPAEDGVSALQKMGVRVQNLTPEICKKLGLASDTRGIFVVSVEAGSPAASAGVVPGQLILAVNRQRVSSVEELNQVLKNAKGENVLLMVSQGEVIRFVVLKSDE	–	completely degrades MOMP protein in the presence of DTT (lane 7)	strongly degrades MOMP protein in the absence of DTT (lane 5)	possesses a strong protease activity as it degrades the BSA substrate (lane 5)	–
TC0210-(H143R) (protein) SPMLGYSAPKKDSSTGICLAASQSDRELSQEDLLKEVSRGFSKVAAQATPGVVYIENFPKTGSQAIASPGNKRGFQENPFDYFNDEFFNRFFGLPSHREQPRPQQRDAVRGTGFIVSEDGYVVTNHRVVEDAGKIHVTLHDGQKYTAKIIGLDPKTDLAVIKIQAKNLPFLTFGNSDQLQIGDWSIAIGNPFGLQATVTVGVISAKGRNQLHIVDFEDFIQTDAAINPGNSGGPLLNIDGQVIGVNTAIVSGSGGYIGIGFAIPSLMAKRVIDQLISDGQVTRGFLGVTLQPIDSELAACYKLEKVYGALITDVVKGSPAEKAGLRQEDVIVAYNGKEVESLSALRNAISLMMPGTRVVLKVVREGKFIEIPVTVTQIPAEDGVSALQKMGVRVQNLTPEICKKLGLASDTRGIFVVSVEAGSPAASAGVVPGQLILAVNRQRVSSVEELNQVLKNAKGENVLLMVSQGEVIRFVVLKSDE	–	–	–	does not degrade the BSA substrate (lane 3)	does not degrade the MOMP protein, either in the presence of DTT (lane 8) or in the absence of DTT (lane 6)
